Five molecules from patent US20200222503A1 (published 2020) can be followed below.

B2: murine CD172a(SIRPα)-Fc-CD40L chimeric protein (Fc fusion, UniProt P97797 32-373, looked up)
chain: KELKVTQPEKSVSVAAGDSTVLNCTLTSLLPVGPIRWYRGVGPSRLLIYSFAGEYVPRIRNVSDTTKRNNMDFSIRISNVTPADAGIYYCVKFQKGSSEPDTEIQSGGGTEVYVLAKPSPPEVSGPADRGIPDQKVNFTCKSHGFSPRNITLKWFKDGQELHPLETTVNPSGKNVSYNISSTVRVVLNSMDVNSKVICEVAHITLDRSPLRGIANLSNFIRVSPTVKVTQQSPTSMNQVNLTCRAERFYPEDLQLIWLENGNVSRNDTPKNLTKNTDGTYNYTSLFLVNSSAHREDVVFTCQVKHDQQPAITRNHTVLGFAHSSDQGSMQTFPDNNATHNWNHRRLDKVEEEVNLHEDFVFIKKLKRCNKGEGSLSLLNCEEMRRQFEDLVKDITLNKEEKKENSFEMQRGDEDPQIAAHVVSEANSNAASVLQWAKKGYYTMKSNLVMLENGKQLTVKREGLYYVYTQVTFCSNREPSSQRPFIVGLWLKPSSGSERILLKAANTHSSSQLCEQQSVHLGGVFELQAGASVFVNVTEASQVIHRVGFSSFGLLKL
notes: extracellular domain; also called mCD172a(SIRPα)-Fc-CD40L; not shown: Fc linker of the murine construct is not specified
B3: murine PD-1-Fc-OX40L chimeric protein (Fc fusion, UniProt Q02242 25-169, looked up)
chain: LEVPNGPWRSLTFYPAWLTVSEGANATFTCSLSNWSEDLMLNWNRLSPSNQTEKQAAFCNGLSQPVQDARFQIIQLPNRHDFHMNILDTRRNDSGIYLCGAISLHPKAKIEESPGAELVVTERILETSTRYPSPSPKPEGRFQGMSSSPAKDPPIQRLRGAVTRCEDGQLFISSYKNEYQTMEVQNNSVVIKCDGLYIIYLKGSFFQEVKIDLHFREDHNPISIPMLNDGRRIVFTVVASLAFKDKVYLTVNAPDTLCEHLQINDGELIVVQLTPGYCAPEGSYHSTVNQVPL
notes: extracellular domain; also called mPD-1-Fc-OX40L; not shown: Fc linker of the murine construct is not specified

Test [1] addresses B3. The test is described as follows: SPR, BioRad ProteOn XPR 360, His-tagged target on chip. Background: Surface plasmon resonance follows binding to a sensor surface in real time, without labels.
For test [2], the target named is T1, murine CD40 on CHOK1 cells (murine, UniProt P27512 20-289).
T1 construct: whole, on cells; also called mCD40; CHOK1/mCD40
T1 sequence (P27512 20-289): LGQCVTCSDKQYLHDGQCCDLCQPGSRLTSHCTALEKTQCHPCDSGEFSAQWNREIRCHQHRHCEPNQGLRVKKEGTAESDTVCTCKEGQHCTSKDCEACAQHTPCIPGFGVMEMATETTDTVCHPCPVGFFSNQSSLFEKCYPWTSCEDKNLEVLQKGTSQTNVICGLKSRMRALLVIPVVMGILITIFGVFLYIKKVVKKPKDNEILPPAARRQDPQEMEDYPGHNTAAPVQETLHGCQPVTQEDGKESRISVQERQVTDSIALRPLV
The test is described as follows: flow cytometry on CHOK1/mCD40 cells. The source says: Cells were collected, washed, and stained with antibodies for the detection of the chimeric protein binding by flow cytometry.
On the technique in general: In flow cytometry, cells or beads pass a laser one at a time.

A further test addresses T2, FcRn-His (Example 11) (Mus musculus (Mouse), UniProt Q61559 22-297; P01887 21-119).
T2 construct: copies: 1 + 1
T2 sequence (alpha): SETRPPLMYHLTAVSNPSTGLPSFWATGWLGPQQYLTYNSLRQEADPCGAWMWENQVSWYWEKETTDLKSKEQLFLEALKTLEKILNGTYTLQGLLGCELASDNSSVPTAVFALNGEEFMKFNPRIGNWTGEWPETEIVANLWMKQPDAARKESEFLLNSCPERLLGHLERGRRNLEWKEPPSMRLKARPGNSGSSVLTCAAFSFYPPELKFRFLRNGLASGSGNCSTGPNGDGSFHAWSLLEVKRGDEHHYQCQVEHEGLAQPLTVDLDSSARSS
T2 sequence (beta): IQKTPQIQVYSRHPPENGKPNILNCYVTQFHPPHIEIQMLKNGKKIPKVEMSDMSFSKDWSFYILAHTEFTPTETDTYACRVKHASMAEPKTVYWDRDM
Kind of test: SPR, BioRad ProteOn XPR 360, His-tagged target on chip.

Test [3] deals with B2. The test is described as follows: SPR.
Test [4] addresses PD-L1 on CHO cells (CHO-PD-L1) (Homo sapiens (Human), UniProt Q9NZQ7 19-290). Kind of test: FACS on CHO-PD-L1 cells.
Test [5] concerns the target T3, OX40 on HeLa cells (HeLa-OX40) (Homo sapiens (Human), UniProt P43489 29-277).
T3 sequence: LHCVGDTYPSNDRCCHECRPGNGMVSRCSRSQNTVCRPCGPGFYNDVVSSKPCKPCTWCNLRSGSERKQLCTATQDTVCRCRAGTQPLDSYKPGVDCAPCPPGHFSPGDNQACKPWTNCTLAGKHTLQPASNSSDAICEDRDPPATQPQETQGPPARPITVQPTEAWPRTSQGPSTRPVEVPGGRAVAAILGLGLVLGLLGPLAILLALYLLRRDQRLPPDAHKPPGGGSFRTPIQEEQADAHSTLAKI
The test is described as follows: FACS on HeLa-OX40 cells.

Chain of PD-L1 on CHO cells (CHO-PD-L1) (Q9NZQ7 19-290 limits assumed, form in doubt): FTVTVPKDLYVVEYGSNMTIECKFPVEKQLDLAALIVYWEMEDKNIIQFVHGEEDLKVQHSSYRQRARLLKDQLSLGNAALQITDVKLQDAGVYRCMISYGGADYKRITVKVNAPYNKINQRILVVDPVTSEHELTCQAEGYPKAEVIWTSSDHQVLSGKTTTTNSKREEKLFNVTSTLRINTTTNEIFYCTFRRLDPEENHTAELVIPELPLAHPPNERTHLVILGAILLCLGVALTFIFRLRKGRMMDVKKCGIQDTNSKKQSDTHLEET

B1: OX40-His (Example 11) (receptor, not shown: small tags and cut ends)
chain: VTARRLNCVKHTYPSGHKCCRECQPGHGMVSRCDHTRDTLCHPCETGFYNEAVNYDTCKQCTQCNHRSGSELKQNCTPTQDTVCRCRPGTQPRQDSGYKLGVDCVPCPPGHFSPGNNQACKPWTNCTLSGKQTRHPASDSLDAVCEDRSLLATLLWETQRPTFRPTTVQSTTVWPRTSELPSPPTLVTPEGP
As to B1, the Kd (commonly the constant that tells how readily two partners part at equilibrium) in test [1] amounted to 9.62 nM. On to B2, for which, in test [2], the EC50 (in general, the concentration at which the effect is half-maximal) is 20.2 nM. For the molecule B3, in the test with FcRn-His (Example 11), binding was characterised by a dissociation constant (Kd) of 55.6 nM; the koff – broadly, the rate constant with which the complex falls apart – amounted to 0.00262 s⁻¹; the kon (as a rule, the rate constant with which the complex forms) is 47200 M⁻¹ s⁻¹.

B4: recombinant murine CD40 protein (receptor, UniProt P27512 24-193, looked up)
chain: VTCSDKQYLHDGQCCDLCQPGSRLTSHCTALEKTQCHPCDSGEFSAQWNREIRCHQHRHCEPNQGLRVKKEGTAESDTVCTCKEGQHCTSKDCEACAQHTPCIPGFGVMEMATETTDTVCHPCPVGFFSNQSSLFEKCYPWTSCEDKNLEVLQKGTSQTNVICGLKSRMR
notes: also called mCD40
Regarding B4, binding in test [3] was characterised by a dissociation constant (Kd) of 0.756 nM.

B5: PD-1_IgG4_OX40L (1) (Fc fusion)
chain: LDSPDRPWNPPTFSPALLVVTEGDNATFTCSFSNTSESFVLNWYRMSPSNQTDKLAAFPEDRSQPGQDCRFRVTQLPNGRDFHMSVVRARRNDSGTYLCGAISLAPKAQIKESLRAELRVTERRAEVPTAHPSPSPRPAGQFQSKYGPPCPSCPAPEFLGGPSVFLFPPKPKDTLMISRTPEVTCVVVDVSQEDPEVQFNWYVDGVEVHNAKTKPREEQFNSTYRVVSVLTVLHQDWLSGKEYKCKVSSKGLPSSIEKTISNATGQPREPQVYTLPPSQEEMTKNQVSLTCLVKGFYPSDIAVEWESNGQPENNYKTTPPVLDSDGSFFLYSRLTVDKSSWQEGNVFSCSVMHEALHNHYTQKSLSLSLGKIEGRMDQVSHRYPRIQSIKVQFTEYKKEKGFILTSQKEDEIMKVQNNSVIINCDGFYLISLKGYFSQEVNISLHYQKDEEPLFQLKKVRSVNSLMVASLTYKDKVYLNVTTDNTSLDDFHVNGGELILIHQNPGEFCVL
For B5, the figures for the EC50 in test [4] and in test [5] were 27 nM and 6 nM, respectively.
